Where two headings read alike, the source gives them in different places.
How the values were obtained:
[1] = system: MEK6; test: immune complex kinase assay with GST-p38 substrate, HeLa cells transfected with epitope-tagged MEK6; assay type: cell-based, human; conditions: for stimulation of MEK6 (summary of Example 4): summary statement for transfected HeLa and COS cells
Protocol: Next, we examined whether MEK6 can activate p38 in vivo. An expression vector encoding epitope-tagged MEK6 (3xHA-MEK6-SRα3) was constructed by replacing serine in position 2 of MEK6 with alanine, adding sequence encoding three copies of a 10 amino acid hemagglutinin (HA) epitope to the N-terminus of MEK6 and ligating the resulting cDNA into SRα3. HeLa cells, cultured in Dulbecco's modified Eagle medium supplemented with 10% fetal calf serum, 500 mg/l L-glutamine, and antibiotics, were transiently transfected with 3xHA-MEK6 using calcium phosphate-mediated DNA precipitation (Graham and van der Eb, Virology 52:456-467 (1973)). Twenty-four hours later cells were stimulated with anisomycin (50 ng/mL) or UV (254 nm; 120 J/m^2) for 0-120 minutes. Cell lysates were prepared by solubilization in lysis buffer as described (Derijard et al., Cell 76:1025-1037 (1994)), and protein concentration of lysates was determined by Bradford assay (Bradford, Ann. Biochem. 72:248-254(1976)).
In an initial experiment we investigated the time course of MEK6 activation by anisomycin and UV treatment of transfected cells. Cell lysates were used in an immune complex kinase assay with GST-p38 substrate, performed as described above except that 30 μg cell lysate was immunoprecipitated for 2 hours with the anti-HA antibody 12CA5 (Boehringer-Mannheim Corp., Indianapolis, Ind.) and then incubated with 1 μg of recombinant substrate. Reactions were separated by SDS-PAGE and quantitated with a phosphorimager and ImageQuant software. The relative level of MEK6 activity in untreated cells was arbitrarily assigned 1.
To investigate the pattern of regulation of MEK6, cells were transiently transfected with 3xHA-MEK6 (as described in Example 3) and treated with various stimulators of the MAPK pathway.
MEKK has been described as a MAPKKK leading to the phosphorylation and activation of JNKK (Lin et al., Science 268:286-290 (1995); Minden et al., Science 266:1719-1722 (1994); Yan et al., Nature 372:798-800 (1994)). In an initial experiment, HeLa (FIG. 7A) or COS (FIG. 7B) cells were transiently transfected with epitope-tagged MEK6 (lanes 1 to 12) or the empty expression vector SRα3 (lanes 13 to 16) and treated for 45 min with IL-1β (10 ng/ml), TNF-α (10 ng/ml), EGF (50 ng/ml), NGF (50 ng/ml), PMA (50 ng/ml), Anisomycin (50 ng/ml), Cycloheximide (CX, 50 ng/ml), Arsenite (200 μM), NaCl (200 μM), UV (254 nm; 120 J/m^2) or cotransfected with 1000 ng CMV5-MEKK as indicated. Cell lysates were used in an immune complex kinase assay with GST-p38 substrate as described in Example 3. MEK6 activity was quantitated with a phosphorimager and ImageQuant software.

[2] = system: MEK6 / p38 / ATF2; test: coupled immune complex kinase assay, MEK6 from anisomycin-treated HeLa cells, recombinant p38 and ATF2; assay type: cell-based, human; conditions: anisomycin 45 minutes, 50 ng/mL, FIG. 6
Protocol: To determine whether the increase in p38 phosphorylation by activated MEK6 augments p38 kinase activity a coupled immune complex kinase assay was performed. Epitope-tagged MEK6 was isolated from anisomycin-treated HeLa cells (45 minutes; 50 ng/mL) and subjected to two subsequent kinase reactions as described above using recombinant p38, ATF2 and GST alone. […] Similar results have been found with MEK6 activated by UV treatment of cells (data not shown). […] This phosphorylation event was slightly augmented by anisomycin in the presence of MEK6 (FIG. 6, compare lanes 3 and 4 with lanes 11 and 12). This protein was not observed in in vitro kinase assays, and therefore is most likely a contamination of the immunoprecipitation.

[3] = target: T1, GST-JNK2 (Homo sapiens, UniProt P45984); test: in vitro kinase assay with bacterially expressed MAPK substrate; assay type: biochemical; conditions: 0.5 μg recombinant kinase, 1 μg substrate, 50 nM [γ-32P]ATP
T1 construct: ligating the respective cDNA fragments encoding amino acid 1 through the stop codon into pGEX-KG; made in house; host or cells: bacteria (pGEX-KG)
Protocol: (§1) A MEK6 kinase assay may be performed substantially as described in Derijard et al., Cell 76:1025-1037 (1994) and Lin et al., Science 268:286-290 (1995), with minor modifications. Briefly, a polypeptide variant of MEK6 may be incubated with p38 and [γ-^32P]ATP in a suitable buffer (such as 20 mM HEPES (pH 7.6), 5 mM MnCl2, 10 mM MgCl2, 1 mM dithiothreitol) for 30 minutes at 30° C. In general, approximately 0.5 μg of the variant and 1 μg recombinant p38, with 50 nM [γ-^32P]ATP, is sufficient. Proteins may then be separated by SDS-PAGE on 10% gels and subjected to autoradiography. Incorporation of [^32P]phosphate into p38 may be quantitated using techniques well known to those of ordinary skill in the art, such as with a phosphorimager. To evaluate the substrate specificity of polypeptide variants, a kinase assay may generally be performed as described above except that other MAPK substrates (i.e., JNK2 and/or ERK) are substituted for the p38.
(§2) cDNAs encoding MEK6 and MKK3 were subcloned into a bacterial GST-fusion protein expression vector. GST-MEK6 was constructed by ligating a 1.3 kb DNA fragment encoding amino acid 1 through the stop codon of MEK6 with a serine to alanine substitution of amino acid 2 into pGEX-KG (Guan and Dixon, Ann. Biochem. 192:262-267 (1991)). Similarly, GST-MKK3, GST-p38 and GST-JNK2 were constructed by ligating the respective cDNA fragments encoding amino acid 1 through the stop codon into pGEX-KG. Human p38 cDNA (Genbank accession number U10871) was cloned by PCR amplification of a Jurkat cDNA library with primers against the 5′ end (5′-[…]-3′) (SEQ ID NO:5) and 3′ end (5′-[…]-3′) (SEQ ID NO:6) of the published human p38 sequence. Each strand of the PCR fragment was sequenced several times with an ABI 373 Automated Sequencer. His-ERK1[K52R] was prepared as described previously (Robbins et al., J. Biol. Chem. 268:5097-5106 (1993)).
(§3) We investigated the substrate specificity of MEK6 in an in vitro kinase assay with bacterially expressed MAPK substrates (GST-JNK2, GST-p38 and His-ERK1[K52R]). The assays were performed as previously described (Derijard et al., Cell 76:1025-1037 (1994); Lin et al., Science 268:286-290 (1995)) with minor modifications. 0.5 μg recombinant kinase and 1 μg recombinant substrate were used, and the concentration of [γ-^32P]ATP was 50 nM. Phosphorylated proteins were separated by SDS-PAGE on 10% gels and then subjected to autoradiography. Incorporation of [^32P]phosphate was quantitated with a phosphorimager and ImageQuant software (Molecular Dynamics, Inc., Sunnyvale, Calif.).

[4] = target: T2, GST-p38 (Homo sapiens, UniProt P52564, S2A); test: as above; assay type: biochemical; conditions: in vitro kinase assay, compared to MKK3
T2 construct: ligating the respective cDNA fragments encoding amino acid 1 through the stop codon into pGEX-KG; made in house; host or cells: bacteria (pGEX-KG)
T2 sequence (P52564 1-334 S2A): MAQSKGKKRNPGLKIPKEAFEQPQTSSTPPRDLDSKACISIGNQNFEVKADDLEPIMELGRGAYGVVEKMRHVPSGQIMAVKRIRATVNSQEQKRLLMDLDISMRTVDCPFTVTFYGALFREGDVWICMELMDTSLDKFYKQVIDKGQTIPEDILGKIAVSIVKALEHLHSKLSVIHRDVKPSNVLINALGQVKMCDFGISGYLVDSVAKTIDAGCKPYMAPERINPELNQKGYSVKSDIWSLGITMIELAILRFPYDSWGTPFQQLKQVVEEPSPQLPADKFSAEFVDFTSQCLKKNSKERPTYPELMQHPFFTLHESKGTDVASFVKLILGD
Protocol: as §1, §2, §3

[5] = target: T3, GST-p38 (Homo sapiens, UniProt Q16539, S2A); test: as above; assay type: biochemical; conditions: 0.5 μg recombinant kinase, 1 μg substrate, 50 nM [γ-32P]ATP
T3 construct: ligating the respective cDNA fragments encoding amino acid 1 through the stop codon into pGEX-KG; made in house; host or cells: bacteria (pGEX-KG)
T3 sequence (Q16539 whole entry S2A, the tested form may be a part): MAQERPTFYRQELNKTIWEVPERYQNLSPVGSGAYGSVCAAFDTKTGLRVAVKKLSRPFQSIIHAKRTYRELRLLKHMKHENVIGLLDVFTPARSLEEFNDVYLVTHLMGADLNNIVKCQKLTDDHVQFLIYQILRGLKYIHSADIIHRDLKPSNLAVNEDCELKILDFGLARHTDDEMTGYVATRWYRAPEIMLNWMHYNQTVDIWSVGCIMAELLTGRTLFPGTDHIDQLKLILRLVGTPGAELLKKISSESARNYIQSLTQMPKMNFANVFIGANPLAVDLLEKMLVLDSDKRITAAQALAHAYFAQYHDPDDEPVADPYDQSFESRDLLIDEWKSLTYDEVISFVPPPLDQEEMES
Protocol: as §1, §2, §3

[6] = system: His-ERK1[K52R]; test: as above; assay type: biochemical; conditions: 0.5 μg recombinant kinase, 1 μg substrate, 50 nM [γ-32P]ATP
Protocol: as §1, §2, §3

[7] = system: GST-p38 / GST-ATF2; test: coupled in vitro kinase assay (p38, GST-ATF2); assay type: biochemical, human
Protocol: To determine whether p38 phosphorylation results in activation, a coupled in vitro kinase assay may be performed using a substrate for p38, such as ATF2, with or without an epitope tag. ATF2 for use in such an assay may be prepared as described in Gupta et al., Science 257:389-393 (1995). Briefly, following phosphorylation of p38 as described above, isolation of the protein by binding to GSH-sepharose and washing with 20 mM HEPES (pH 7.6), 20 mM MgCl2, the p38 (0.1-10 μg) may be incubated with ATF2 (0.1-10 μg) and [γ-^32P]ATP (10-500 nM) in a buffer containing 20 mM HEPES (pH 7.6), 20 mM MgCl2. It should be noted that alternative buffer may be used and that buffer composition can vary without significant effects on kinase activity. Reactions may be separated by SDS-PAGE, visualized by autoradiography and quantitated using any of a variety of known techniques. Activated p38 will be capable of phosphorylating ATF2 at a level of at least 5% above background using this assay.
To determine whether phosphorylation of p38 is an activating event we analyzed the phosphorylation of recombinant ATF2 (a substrate for p38) in a coupled in vitro kinase assay. […] Reactions were separated by SDS-PAGE and visualized by autoradiography.

[8] = system: GST-JNK2 / GST-cJun(1-79); test: coupled in vitro kinase assay (JNK2, GST-cJun(1-79)); assay type: biochemical; conditions: FIG. 3B lanes 1 to 3
[9] = HeLa cells, 45 min, anisomycin 50 ng/ml, NaCl 200 μM, IL-1β 10 ng/ml, EGF 50 ng/ml, NGF 50 ng/ml, CMV5-MEKK 1000 ng cotransfected, FIG. 7A
[10] = HeLa cells, anisomycin 50 ng/mL, FIG. 4

## [Cl-].[Na+] [NaCl]
[1]
  induction of MEK6 kinase activity: strongest inducers

## COc1ccc(C[C@H]2NC[C@H](O)[C@H]2OC(C)=O)cc1 [anisomycin]
[1]; [9]
  induction of MEK6 kinase activity: strongest inducers
[1]; [10]
  time at which MEK6 activation was first observed after treatment: 10 min
  time of peak MEK6 activation after treatment: 40 min
[1]
  stimulation of MEK6 (summary of Example 4): strongly activated
[2]
  phosphorylation of ATF2 after anisomycin treatment: increased phosphorylation of ATF2 only when MEK6 and p38 were present

## C[C@@H]1C[C@@H]([C@H](O)CC2CC(=O)NC(=O)C2)C(=O)[C@@H](C)C1 [cycloheximide]
[1]
  stimulation of MEK6 (summary of Example 4): did not significantly activate MEK6

## EGF: strong inducer of the ERK pathway
[1]; [9]
  induction of MEK6 kinase activity: did not activate MEK6
[1]
  stimulation of MEK6 (summary of Example 4): did not stimulate MEK6

## IL-1β: cytokine stimulator
[1]; [9]
  induction of MEK6 kinase activity: weak induction

## NGF: strong inducer of the ERK pathway
[1]; [9]
  induction of MEK6 kinase activity: did not activate MEK6
[1]
  stimulation of MEK6 (summary of Example 4): did not stimulate MEK6

B1: MEK6: human mitogen-activated protein kinase kinase, SEQ ID NO:2, 334 amino acids; used as GST fusion or HA epitope-tagged (protein)
chain: SQSKGKKRNPGLKIPKEAFEQPQTSSTPPRDLDSKACISIGNQNFEVKADDLEPIMELGRGAYGVVEKMRHVPSGQIMAVKRIRATVNSQEQKRLLMDLDISMRTVDCPFTVTFYGALFREGDVWICMELMDTSLDKFYKQVIDKGQTIPEDILGKIAVSIVKALEHLHSKLSVIHRDVKPSNVLINALGQVKMCDFGISGYLVDSVAKTIDAGCKPYMAPERINPELNQKGYSVKSDIWSLGITMIELAILRFPYDSWGTPFQQLKQVVEEPSPQLPADKFSAEFVDFTSQCLKKNSKERPTYPELMQHPFFTLHESKGTDVASFVKLILGD
modifications: GST fusion or HA tag; homo sapien
[3]
  phosphorylation of JNK2 by MEK6: none of the other substrates
[4]
  autophosphorylation of MEK6: very low compared to MKK3
[5]
  phosphorylation of p38 by MEK6: efficiently phosphorylated p38
[6]
  phosphorylation of ERK1[K52R] by MEK6: none of the other substrates
[7]; FIG. 3B lane 5
  phosphorylation of ATF2 by p38 activated by MEK6: strongly phosphorylated
[7]; without p38
  direct phosphorylation of ATF2 by MEK6: not directly phosphorylated
[8]
  phosphorylation of Jun, directly or in combination with JNK2: did not cause increased phosphorylation of Jun

From US20060110799A1, “Mitogen-activated protein kinase kinase MEK6 and methods of use thereof” (Signal Pharmaceuticals, Inc., priority 1995, published 2006)
